Experimental data as given in patent publication US20250262210A1 (TRUSTEES OF COLUMBIA UNIVERSITY IN THE CITY OF NEW YORK, published 2025).

Legend:
Test in all cases: IP/MS, LZTR1 R810W-FLAG, U87
[1] = molecular target: INTS1 (human, UniProt Q8N201 1-2190)
How it was run: (§1)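 Read-out: spectral counts from LC-MS/MS (Orbitrap Fusion) after MaxQuant identification. Variable modifications were Met oxidation, protein N-terminal acetylation and N/Q deamidation.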

[2] = molecular target: EIF2AK4 (human, UniProt Q9P2K8 1-1649, limits assumed)
How it was run: as §1

[3] = molecular target: PAPPA (human, UniProt Q13219 82-1627)
How it was run: as §1

[4] = molecular target: T1, NCAPG2 (human, UniProt Q86XI2 1-1143, limits assumed)
T1 sequence (looked up): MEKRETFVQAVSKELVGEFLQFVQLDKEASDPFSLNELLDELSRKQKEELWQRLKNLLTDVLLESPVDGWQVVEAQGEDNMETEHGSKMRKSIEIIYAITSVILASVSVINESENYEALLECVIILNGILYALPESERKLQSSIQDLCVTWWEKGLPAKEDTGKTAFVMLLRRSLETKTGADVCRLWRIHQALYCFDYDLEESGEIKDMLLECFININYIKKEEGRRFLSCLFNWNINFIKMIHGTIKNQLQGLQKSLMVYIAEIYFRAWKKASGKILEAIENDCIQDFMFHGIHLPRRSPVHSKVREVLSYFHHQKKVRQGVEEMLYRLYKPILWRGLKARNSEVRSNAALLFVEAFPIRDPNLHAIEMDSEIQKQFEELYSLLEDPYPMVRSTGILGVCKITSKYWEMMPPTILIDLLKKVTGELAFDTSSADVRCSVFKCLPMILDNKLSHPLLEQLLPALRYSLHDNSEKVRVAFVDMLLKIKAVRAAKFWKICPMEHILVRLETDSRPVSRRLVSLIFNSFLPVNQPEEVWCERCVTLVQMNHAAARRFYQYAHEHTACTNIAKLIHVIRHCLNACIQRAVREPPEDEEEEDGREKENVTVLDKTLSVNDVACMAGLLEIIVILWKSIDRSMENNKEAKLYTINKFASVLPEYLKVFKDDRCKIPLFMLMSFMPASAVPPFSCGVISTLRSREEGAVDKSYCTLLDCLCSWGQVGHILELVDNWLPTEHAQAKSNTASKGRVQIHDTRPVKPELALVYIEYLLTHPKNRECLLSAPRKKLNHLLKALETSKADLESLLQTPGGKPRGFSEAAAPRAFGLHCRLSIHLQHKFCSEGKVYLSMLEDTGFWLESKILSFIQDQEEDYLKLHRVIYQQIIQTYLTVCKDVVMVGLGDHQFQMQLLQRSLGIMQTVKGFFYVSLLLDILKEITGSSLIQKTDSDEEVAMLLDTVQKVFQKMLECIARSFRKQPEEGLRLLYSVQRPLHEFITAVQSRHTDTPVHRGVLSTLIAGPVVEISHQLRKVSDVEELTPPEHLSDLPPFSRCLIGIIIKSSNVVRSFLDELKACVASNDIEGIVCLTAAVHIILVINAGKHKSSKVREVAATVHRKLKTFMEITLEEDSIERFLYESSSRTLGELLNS
How it was run: as §1

[5] = molecular target: T2, ABR (human, UniProt Q12979 1-859, limits assumed)
T2 sequence (looked up): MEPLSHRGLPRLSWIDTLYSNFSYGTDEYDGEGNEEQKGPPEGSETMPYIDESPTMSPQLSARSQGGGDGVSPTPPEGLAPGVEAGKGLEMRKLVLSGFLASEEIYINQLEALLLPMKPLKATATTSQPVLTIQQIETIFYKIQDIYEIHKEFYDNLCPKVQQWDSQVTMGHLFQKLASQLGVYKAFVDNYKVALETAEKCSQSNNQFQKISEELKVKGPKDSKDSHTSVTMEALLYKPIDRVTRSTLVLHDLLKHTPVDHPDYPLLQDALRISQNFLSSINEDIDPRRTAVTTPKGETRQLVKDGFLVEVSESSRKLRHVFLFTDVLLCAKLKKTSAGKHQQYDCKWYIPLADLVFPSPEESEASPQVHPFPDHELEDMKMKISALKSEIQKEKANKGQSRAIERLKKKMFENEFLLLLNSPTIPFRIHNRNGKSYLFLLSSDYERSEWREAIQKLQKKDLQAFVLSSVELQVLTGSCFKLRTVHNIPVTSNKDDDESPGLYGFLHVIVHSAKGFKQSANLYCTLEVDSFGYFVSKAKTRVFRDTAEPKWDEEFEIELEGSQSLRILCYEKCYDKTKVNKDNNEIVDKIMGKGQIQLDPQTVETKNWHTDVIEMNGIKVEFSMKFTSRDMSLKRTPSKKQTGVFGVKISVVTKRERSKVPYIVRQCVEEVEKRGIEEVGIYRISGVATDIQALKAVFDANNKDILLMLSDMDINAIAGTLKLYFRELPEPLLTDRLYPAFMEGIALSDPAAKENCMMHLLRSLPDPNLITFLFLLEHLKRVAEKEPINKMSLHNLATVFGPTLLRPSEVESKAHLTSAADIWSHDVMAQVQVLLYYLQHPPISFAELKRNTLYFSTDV
How it was run: as §1

[6] = molecular target: HTT (human, UniProt P42858 1-3142)
How it was run: as §1

Measured: binding result

Sequence of EIF2AK4 (Q9P2K8 whole entry): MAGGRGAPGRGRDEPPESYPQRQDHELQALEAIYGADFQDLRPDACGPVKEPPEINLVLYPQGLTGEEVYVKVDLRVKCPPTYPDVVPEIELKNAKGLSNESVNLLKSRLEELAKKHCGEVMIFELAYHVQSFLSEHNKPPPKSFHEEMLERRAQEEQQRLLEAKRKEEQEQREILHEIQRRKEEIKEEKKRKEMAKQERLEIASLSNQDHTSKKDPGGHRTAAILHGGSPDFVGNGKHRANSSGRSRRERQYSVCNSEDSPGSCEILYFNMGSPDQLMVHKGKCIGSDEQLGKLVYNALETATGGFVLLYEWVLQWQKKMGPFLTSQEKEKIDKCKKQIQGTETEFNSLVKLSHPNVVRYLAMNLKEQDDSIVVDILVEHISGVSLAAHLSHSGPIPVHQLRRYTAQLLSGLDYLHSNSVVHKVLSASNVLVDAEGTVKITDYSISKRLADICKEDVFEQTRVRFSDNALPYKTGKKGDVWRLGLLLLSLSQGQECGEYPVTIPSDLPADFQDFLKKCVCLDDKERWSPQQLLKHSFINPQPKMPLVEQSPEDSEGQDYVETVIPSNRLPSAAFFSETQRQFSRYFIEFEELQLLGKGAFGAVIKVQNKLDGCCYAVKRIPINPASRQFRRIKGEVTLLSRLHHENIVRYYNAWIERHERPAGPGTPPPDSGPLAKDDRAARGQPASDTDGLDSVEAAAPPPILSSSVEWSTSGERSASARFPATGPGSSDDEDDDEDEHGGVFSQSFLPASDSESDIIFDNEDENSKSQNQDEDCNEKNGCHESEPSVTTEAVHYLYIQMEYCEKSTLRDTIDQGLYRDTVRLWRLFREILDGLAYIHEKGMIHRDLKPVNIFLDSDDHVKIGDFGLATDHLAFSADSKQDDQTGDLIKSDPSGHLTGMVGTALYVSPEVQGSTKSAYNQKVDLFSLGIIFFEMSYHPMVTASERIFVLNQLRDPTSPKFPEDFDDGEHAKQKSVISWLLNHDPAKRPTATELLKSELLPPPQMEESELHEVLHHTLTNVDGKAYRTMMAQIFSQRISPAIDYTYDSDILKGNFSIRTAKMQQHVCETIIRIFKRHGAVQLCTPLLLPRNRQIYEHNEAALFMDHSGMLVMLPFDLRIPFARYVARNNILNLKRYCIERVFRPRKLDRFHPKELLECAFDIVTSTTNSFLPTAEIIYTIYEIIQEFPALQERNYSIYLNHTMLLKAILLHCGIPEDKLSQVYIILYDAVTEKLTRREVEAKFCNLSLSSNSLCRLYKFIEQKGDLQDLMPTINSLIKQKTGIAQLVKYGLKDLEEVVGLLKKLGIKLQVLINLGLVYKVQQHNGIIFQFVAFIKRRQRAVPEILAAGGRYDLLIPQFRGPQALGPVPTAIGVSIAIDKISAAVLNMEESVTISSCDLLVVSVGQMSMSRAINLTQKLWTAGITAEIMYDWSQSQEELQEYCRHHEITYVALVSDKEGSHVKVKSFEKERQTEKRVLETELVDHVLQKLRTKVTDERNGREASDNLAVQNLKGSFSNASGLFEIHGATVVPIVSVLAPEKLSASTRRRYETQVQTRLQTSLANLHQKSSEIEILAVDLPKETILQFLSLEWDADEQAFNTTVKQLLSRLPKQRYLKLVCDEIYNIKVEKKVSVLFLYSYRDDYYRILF
Sequence of PAPPA (Q13219 82-1627 limits assumed): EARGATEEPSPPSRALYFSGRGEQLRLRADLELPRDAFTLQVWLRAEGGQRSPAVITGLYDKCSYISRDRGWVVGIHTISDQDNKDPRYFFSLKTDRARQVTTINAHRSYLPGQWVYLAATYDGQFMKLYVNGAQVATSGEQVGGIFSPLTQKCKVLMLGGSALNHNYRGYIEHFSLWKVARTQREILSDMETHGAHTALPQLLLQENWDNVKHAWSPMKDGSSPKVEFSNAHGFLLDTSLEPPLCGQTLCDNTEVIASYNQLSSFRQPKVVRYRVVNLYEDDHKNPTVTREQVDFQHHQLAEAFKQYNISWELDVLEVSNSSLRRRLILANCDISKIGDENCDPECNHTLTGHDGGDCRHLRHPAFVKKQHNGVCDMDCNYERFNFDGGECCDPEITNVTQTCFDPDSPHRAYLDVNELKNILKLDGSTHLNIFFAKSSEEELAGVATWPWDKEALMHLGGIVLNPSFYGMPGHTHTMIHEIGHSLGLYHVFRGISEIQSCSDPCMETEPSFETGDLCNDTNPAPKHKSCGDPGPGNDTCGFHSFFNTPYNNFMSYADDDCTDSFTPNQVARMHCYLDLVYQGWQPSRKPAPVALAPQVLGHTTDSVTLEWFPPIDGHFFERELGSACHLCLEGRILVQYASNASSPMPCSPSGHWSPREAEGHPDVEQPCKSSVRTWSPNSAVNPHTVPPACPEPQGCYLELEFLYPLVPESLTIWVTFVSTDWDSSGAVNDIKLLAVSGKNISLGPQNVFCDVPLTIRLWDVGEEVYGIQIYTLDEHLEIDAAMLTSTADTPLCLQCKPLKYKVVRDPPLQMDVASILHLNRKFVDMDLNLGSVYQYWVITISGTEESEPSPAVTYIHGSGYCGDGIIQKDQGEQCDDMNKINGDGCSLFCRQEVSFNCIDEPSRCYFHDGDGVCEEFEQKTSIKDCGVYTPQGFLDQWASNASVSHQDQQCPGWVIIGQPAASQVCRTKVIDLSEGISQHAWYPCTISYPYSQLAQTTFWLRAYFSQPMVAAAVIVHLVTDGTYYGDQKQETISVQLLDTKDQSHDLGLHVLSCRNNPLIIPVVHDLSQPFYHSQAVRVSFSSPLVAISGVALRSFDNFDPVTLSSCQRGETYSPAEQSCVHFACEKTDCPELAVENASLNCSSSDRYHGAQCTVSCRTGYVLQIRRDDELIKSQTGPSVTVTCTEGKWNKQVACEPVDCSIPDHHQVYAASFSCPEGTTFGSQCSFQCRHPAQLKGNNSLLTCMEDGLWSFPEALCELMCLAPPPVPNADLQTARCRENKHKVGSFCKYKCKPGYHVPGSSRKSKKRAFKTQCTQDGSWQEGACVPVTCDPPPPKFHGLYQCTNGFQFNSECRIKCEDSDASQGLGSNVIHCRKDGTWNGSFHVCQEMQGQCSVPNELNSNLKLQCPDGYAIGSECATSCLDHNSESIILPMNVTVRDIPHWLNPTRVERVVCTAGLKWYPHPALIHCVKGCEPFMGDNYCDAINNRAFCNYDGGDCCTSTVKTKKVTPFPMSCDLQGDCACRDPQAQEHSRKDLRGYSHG

B1: LZTR1 R810W-FLAG (other, human, UniProt Q8N653 1-840, looked up)
chain: MAGPGSTGGQIGAAALAGGARSKVAPSVDFDHSCSDSVEYLTLNFGPFETVHRWRRLPPCDEFVGARRSKHTVVAYKDAIYVFGGDNGKTMLNDLLRFDVKDCSWCRAFTTGTPPAPRYHHSAVVYGSSMFVFGGYTGDIYSNSNLKNKNDLFEYKFATGQWTEWKIEGRLPVARSAHGATVYSDKLWIFAGYDGNARLNDMWTIGLQDRELTCWEEVAQSGEIPPSCCNFPVAVCRDKMFVFSGQSGAKITNNLFQFEFKDKTWTRIPTEHLLRGSPPPPQRRYGHTMVAFDRHLYVFGGAADNTLPNELHCYDVDFQTWEVVQPSSDSEVGGAEVPERACASEEVPTLTYEERVGFKKSRDVFGLDFGTTSAKQPTQPASELPSGRLFHAAAVISDAMYIFGGTVDNNIRSGEMYRFQFSCYPKCTLHEDYGRLWESRQFCDVEFVLGEKEECVQGHVAIVTARSRWLRRKITQARERLAQKLEQEAAPVPREAPGVAAGGARPPLLHVAIREAEARPFEVLMQFLYTDKIKYPRKGHVEDVLLIMDVYKLALSFQLCRLEQLCRQYIEASVDLQNVLVVCESAARLQLSQLKEHCLNFVVKESHFNQVIMMKEFERLSSPLIVEIVRRKQQPPPRTPLDQPVDIGTSLIQDMKAYLEGAGAEFCDITLLLDGHPRPAHKAILAARSSYFEAMFRSFMPEDGQVNISIGEMVPSRQAFESMLRYIYYGEVNMPPEDSLYLFAAPYYYGFYNNRLQAYCKQNLEMNVTVQNVLQILEAADKTQALDMKRHCLHIIVHQFTKVSKLPTLWSLSQQLLLDIIDSLASHISDKQCAELGADI
notes: Stably expressed in U87 cells by lentivirus; also called LZTR1-FLAG-R810W; LZTR1 RW; not shown: FLAG tag
binds: all assays above
